# Test results: patent US20110318339A1
# Substitutions are numbered along the chain they refer to. Numbers in names are those of the source.
# B1: Fab VH5-51_IGHD5-18*01>3_IGHJ4*01 G100K/G104T S28R & V3-4_IGLJ1*01 M94R/S96M (Fab, V domains shown)
# VH: EVQLVQSGAEVKKPGESLKISCKGSGYRFTSYWIGWVRQMPGKGLEWMGIIYPGDSDTRYSPSFQGQVTISADKSISTAYLQWSSLKASDTAMYYCARRKYSYTYDYFDYWGQGTLVTVSS
# VL: QTVVTQEPSFSVSPGGTVTLTCGLSSGSVSTSYYPSWYQQTPGQAPRTLIYSTNTRSSGVPDRFSGSILGNKAALTITGAQADDESDYYCVLYRGMGISYVFGTGTKVTVL
# B2: Fab VH5-51_IGHD5-18*01>3_IGHJ4*01 G100K/G104T G24L/S28R/G35V & V3-4_IGLJ1*01 M94R/S96M (Fab, V domains shown)
# VH: B1 VH with G24L, G35V
# VL: B1 VL
# B3: Fab VH5-51_IGHD5-18*01>3_IGHJ4*01 G100K/G104T G24A/S28R/G35V & V3-4_IGLJ1*01 M94R/S96M (Fab, V domains shown)
# VH: B1 VH with G24A, G35V
# VL: B1 VL
# B4: Fab VH5-51_IGHD5-18*01>3_IGHJ4*01 G100K/G104T G24T/S28R/G35V D109Q & V3-4_IGLJ1*01 (Fab, V domains shown)
# VH: B1 VH with G24T, G35V, D109Q
# VL: B1 VL with R94M, M96S
# B5: Fab VH5-51_IGHD5-18*01>3_IGHJ4*01 G100K/G104T G24T/S28R/G35V Y107F & V3-4_IGLJ1*01 (Fab, V domains shown)
# VH: B1 VH with G24T, G35V, Y107F
# VL: B1 VL with R94M, M96S
# B6: Fab VH5-51_IGHD5-18*01>3_IGHJ4*01 G100K/G104T G24T/S28R/G35V Y105N & V3-4_IGLJ1*01 (Fab, V domains shown)
# VH: B1 VH with G24T, G35V, Y105N
# VL: B1 VL with R94M, M96S
# B7: Fab VH5-51_IGHD5-18*01>3_IGHJ4*01 G104T & V3-4_IGLJ1*01 (Fab, V domains shown)
# VH: B1 VH with R28S, K100G
# VL: B1 VL with R94M, M96S
# B8: Fab VH5-51_IGHD5-18*01>3_IGHJ4*01 G100K/G104T G24T/S28R/G35V Y105H & V3-4_IGLJ1*01 (Fab, V domains shown)
# VH: B1 VH with G24T, G35V, Y105H
# VL: B1 VL with R94M, M96S
# B9: Fab VH5-51_IGHD5-18*01>3_IGHJ4*01 G100K & V3-4_IGLJ1*01 (Fab, V domains shown)
# VH: B1 VH with R28S, T104G
# VL: B1 VL with R94M, M96S
# Target: recombinant human DLL4 (Cat# 1506-D4/CF, R&D Systems) (human) (UniProt Q9NR61)
# Assay: ELISA, DLL4 coated, Fab […]
row,ELISA absorbance at 450 nm [A450],Binder
1,0.001,B1
2,0,B2
3,0.034,B3

# Target: recombinant human DLL4 (Cat# 1506-D4/CF, R&D Systems) (human) (UniProt Q9NR61)
# Assay: ELISA, DLL4 coated, Fab 20 nM
row,ELISA absorbance at 450 nm [A450],Binder
1,0.011,B1
2,0.003,B2
3,0.006,B3

# Target: recombinant human DLL4 (Cat# 1506-D4/CF, R&D Systems) (human) (UniProt Q9NR61)
# Assay: ELISA, DLL4 coated, Fab 25 nM
row,ELISA absorbance at 450 nm [A450],Binder
1,0.22,B4
2,0.2,B5
3,0.19,B6
4,0.18,B7
5,0.19,B8
6,0.18,B9

# Target: recombinant human DLL4 (Cat# 1506-D4/CF, R&D Systems) (human) (UniProt Q9NR61)
# Assay: ELISA, DLL4 coated, Fab 50 nM
row,ELISA absorbance at 450 nm [A450],Binder
1,0.25,B4
2,0.24,B5
3,0.18,B6
4,0.17,B7
5,0.2,B8
6,0.19,B9

# Target: recombinant human DLL4 (Cat# 1506-D4/CF, R&D Systems) (human) (UniProt Q9NR61)
# Assay: ELISA, DLL4 coated, Fab 100 nM
row,ELISA absorbance at 450 nm [A450],Binder
1,0.3,B4
2,0.28,B5
3,0.25,B6
4,0.17,B7
5,0.23,B8
6,0.2,B9

# Target: recombinant human DLL4 (Cat# 1506-D4/CF, R&D Systems) (human) (UniProt Q9NR61)
# Assay: ELISA, DLL4 coated, Fab 0.74 nM
row,ELISA absorbance at 450 nm [A450],Binder
1,0,B1
2,0,B2
3,0,B3

# Target: recombinant human DLL4 (Cat# 1506-D4/CF, R&D Systems) (human) (UniProt Q9NR61)
# Assay: ELISA, DLL4 coated, Fab 2.22 nM
row,ELISA absorbance at 450 nm [A450],Binder
1,0.003,B1
2,0,B2
3,0,B3

# Target: recombinant human DLL4 (Cat# 1506-D4/CF, R&D Systems) (human) (UniProt Q9NR61)
# Assay: ELISA, DLL4 coated, Fab 12.5 nM
row,ELISA absorbance at 450 nm [A450],Binder
1,0.24,B4
2,0.21,B5
3,0.21,B6
4,0.19,B7
5,0.21,B8
6,0.19,B9
